Measured values from US20120027785A1.

B1: CdtB/DNase I hybrid protein (from pETBDN2) (protein)
chain: NLSDFKVATWNLQGSSAVNESKWNINVRQLLSGEQGADILMVQEAGSLPSSAVRTSRVIQHGGTPIEEYTWNLGTRSRPNMVYIYYSRLDVGANRVNLAIVSRRQADEAFIVHSDSSVLQSRPAVGIRIGTDVFFTVHAAPGDAVAEIDALYDVYLDVQEKWGLEDVMLMGDFNAGCSYVRPSQWSSIRLWTSPTFQWLIPDSADTTATPTHCAYDRIVVAGMLLRGAVVPDSALPFNFQAANGLSDQLAQAISDHYPVEVMLKHHHHHHHMLEDPAANKAQKK

How the values were obtained:
[1] = molecular target: human CD133 (prominin-1) (human) (UniProt O43490); assay: flow cytometry on RPMI 2650 cells, directly PE-conjugated antibody
[2] = molecular target: T1, CdtA-CdtC heterodimer (wild-type CdtA-His6 and CdtC-His6)
T1 chain 1: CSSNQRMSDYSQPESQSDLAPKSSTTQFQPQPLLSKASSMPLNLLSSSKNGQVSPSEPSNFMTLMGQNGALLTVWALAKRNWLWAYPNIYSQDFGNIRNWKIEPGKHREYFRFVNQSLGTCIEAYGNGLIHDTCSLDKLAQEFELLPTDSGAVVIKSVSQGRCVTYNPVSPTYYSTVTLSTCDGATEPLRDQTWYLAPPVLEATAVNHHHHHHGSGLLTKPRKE
T1 chain 2: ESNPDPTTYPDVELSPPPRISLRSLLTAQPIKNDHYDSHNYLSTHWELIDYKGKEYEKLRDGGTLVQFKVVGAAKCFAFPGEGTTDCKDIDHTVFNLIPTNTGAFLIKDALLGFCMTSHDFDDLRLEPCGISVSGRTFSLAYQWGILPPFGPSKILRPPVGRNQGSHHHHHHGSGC

Molecule	median fluorescence (MF) [1]	DNA nicking activity of reconstituted heterotrimer preparations [2]
mouse anti-human CD133/1 MAb conjugated to PE (Miltenyi Biotec) (antibody)	64.8	–
B1	–	reconstituted heterotrimer preparations containing the CdtB/DNase I hybrid protein failed to convert supercoiled DNA to linear and relaxed forms
